Results reported in US20160031959A1.

Molecular target: recombinant BAX protein (UniProt Q07812)
Experiment: fluorescence polarization, FITC-labeled peptide incubated with recombinant BAX at various concentrations, 60 min, room temperature

Chain of recombinant BAX protein (Q07812 whole entry, form in doubt): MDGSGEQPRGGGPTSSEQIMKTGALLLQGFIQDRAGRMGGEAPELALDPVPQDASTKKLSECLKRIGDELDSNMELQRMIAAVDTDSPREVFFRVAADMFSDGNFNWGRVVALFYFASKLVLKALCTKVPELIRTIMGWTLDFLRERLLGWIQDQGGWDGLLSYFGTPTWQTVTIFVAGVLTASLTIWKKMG

BCL-2 BH4 SAHBA (peptide) showed an EC50 of 4.6 nM.
